Among the data in patent US20140302075A1 are Fold increase in activity over AspRS1^N1 (TLR4 Activity; SEAP reporter, HEK-Blue TLR4 cells) values, retold here.

This assay addresses human TLR4 receptor (expressed on HEK-Blue TLR4 reporter cells) (human) (UniProt O00206). Put plainly: cell-based or functional assay.
UniProt O00206, sequence (O00206 24-839): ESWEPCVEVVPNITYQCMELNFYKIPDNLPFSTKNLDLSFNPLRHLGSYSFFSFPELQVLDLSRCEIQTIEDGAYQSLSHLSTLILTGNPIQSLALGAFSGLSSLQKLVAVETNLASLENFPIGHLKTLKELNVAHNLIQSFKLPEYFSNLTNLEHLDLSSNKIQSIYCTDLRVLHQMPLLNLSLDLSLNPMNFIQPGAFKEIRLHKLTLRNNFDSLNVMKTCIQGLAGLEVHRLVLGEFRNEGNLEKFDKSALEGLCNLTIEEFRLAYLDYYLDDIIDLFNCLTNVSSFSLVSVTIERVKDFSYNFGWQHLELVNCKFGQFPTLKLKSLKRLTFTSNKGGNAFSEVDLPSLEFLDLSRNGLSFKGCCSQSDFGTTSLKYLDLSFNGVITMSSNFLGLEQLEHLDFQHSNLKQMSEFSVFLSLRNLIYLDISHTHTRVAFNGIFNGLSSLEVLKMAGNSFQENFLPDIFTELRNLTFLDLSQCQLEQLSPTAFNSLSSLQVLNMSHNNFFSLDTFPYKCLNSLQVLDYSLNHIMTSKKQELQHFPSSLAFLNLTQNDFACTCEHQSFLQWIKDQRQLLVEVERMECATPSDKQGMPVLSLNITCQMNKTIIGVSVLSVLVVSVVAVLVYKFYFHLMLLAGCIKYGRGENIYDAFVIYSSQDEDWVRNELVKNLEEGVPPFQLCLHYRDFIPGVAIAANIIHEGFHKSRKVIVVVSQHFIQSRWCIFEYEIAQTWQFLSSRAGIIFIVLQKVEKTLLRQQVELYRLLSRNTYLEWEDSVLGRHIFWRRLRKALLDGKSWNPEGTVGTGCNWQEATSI

Consider “AspRS1^N1 (C76S) (amino acids 1-154 of human aspartyl-tRNA synthetase with Cys76 to Ser, C-terminal V5His tag) (ligand)”, for which the Fold increase in activity over AspRS1^N1 (TLR4 Activity; SEAP reporter, HEK-Blue TLR4 cells) amounted to 3.6 fold.
